Where “and” joins values, the source holds several entries; their conditions need not be identical. Equal values may be shown once.
T1: human CD112R on Jurkat CD112R effector cells (human, UniProt Q6DKI7 1-326)
T1 sequence (looked up): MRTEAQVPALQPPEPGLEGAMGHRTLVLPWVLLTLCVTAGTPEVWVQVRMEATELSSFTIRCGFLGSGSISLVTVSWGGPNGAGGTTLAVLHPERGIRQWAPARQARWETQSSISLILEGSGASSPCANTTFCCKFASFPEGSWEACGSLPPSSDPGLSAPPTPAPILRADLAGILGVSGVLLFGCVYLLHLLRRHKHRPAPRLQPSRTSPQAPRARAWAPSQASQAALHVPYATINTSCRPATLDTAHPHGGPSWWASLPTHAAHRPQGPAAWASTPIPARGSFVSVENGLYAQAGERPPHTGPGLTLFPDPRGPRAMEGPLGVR

T2: hCD112R mFC recombinant protein (human; murine, UniProt Q6DKI7 41-160)
T2 construct: range 41-160; expressed in 293E cells; also called hCD112R ECD mFC; hCD112R-ECD-mFC; not shown: murine IgG2a Fc domain (MX2-mFc vector)
T2 sequence (looked up): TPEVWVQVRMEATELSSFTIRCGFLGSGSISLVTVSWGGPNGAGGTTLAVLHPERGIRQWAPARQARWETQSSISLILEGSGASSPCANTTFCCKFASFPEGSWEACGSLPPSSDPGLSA


Key:
[1] = biological target: T1, human CD112R on Jurkat CD112R effector …; experiment: cell-based or functional assay
[2] = biological target: T2, hCD112R mFC recombinant protein; experiment: ELISA, coated hCD112R-ECD-mFC; EC50 COM701/EC50 antibody
Experimental: (§1) A plate was coated with a hCD112R-ECD-mFC protein (1.5 μg/mL) at a fixed concentration, and the humanized anti-CD112R antibodies diluted in a gradient (initial concentration: 1 μg/mL, 2.5-fold gradient dilution, 12 concentration gradients in total) were added to bind to the antigen. HRP-conjugated goat anti-human antibody IgG (Fc specific) (Sigma, A0170) was subjected to a 5000-fold dilution and used as a detection antibody for detection. The color development was performed with 0.1 mg/mL TMB, and finally stopped with 2 M hydrochloric acid. The plate was read at 420 nm/620 nm. EC₅₀ was obtained by fitting with a four-parameter logistic regression (4PL) model. The […] were COM701 (anti-CD112R antibody, Compugen, obtained by expression and purification according to the sequences in US20180280506A1) and the anti-KLH hu-IgG4 antibody.

[3] = biological target: T2, hCD112R mFC recombinant protein; experiment: FACS competition, hCD112R mFc on CHO CD112 cells
Experimental: (§2) Cells CHO CD112 overexpressing human CD112 were co-incubated with a hCD112R mFc protein solution (5 μg/mL) prepared in a staining buffer (PBS+1% FBS), and the humanized anti-CD112R antibodies or the control antibodies at different concentrations (initial concentration: 100 μg/mL, 3-fold dilution, 10 concentration gradients) at 4° C. for 30 min. Unbound antibodies were then washed with a staining buffer and the cells were incubated with 1% (v/v) goat anti-mouse IgG Fc fluorescent secondary antibodies (Jackson ImmunoResearch) prepared in a staining buffer at 4° C. for 30 min in the dark. Finally, the cells were collected by using a flow cytometer (BD Canto II), and the fluorescent antibodies bound to the cell surface were detected. Raw data were analyzed by using FlowJo to obtain MFI values, and a four-parameter curve fitting was performed by using GraphPad Prism software to obtain IC₅₀ values. The positive control and the negative control were COM701 (anti-CD112R antibody, Compugen, obtained by expression and purification according to the sequences in US20180280506A1) and the anti-KLH hu-IgG4 antibody, respectively.

[4] = biological target: T2, hCD112R mFC recombinant protein; experiment: ELISA, coated hCD112R-ECD-mFC
Experimental: as §1

[5] = biological target: T2, hCD112R mFC recombinant protein; experiment: FACS competition, hCD112R mFc on CHO CD112 cells; IC50 COM701/IC50 antibody
Experimental: as §2

Binder | EC50, CD112R/CD112 reporter [1] | Relative activity (%), EC50 COM701/EC50 antibody [1] | Relative activity (%) [2] | IC50 [3] | EC50 [4] | Relative activity (%) [5]
Hu37 (antibody, IgG4, V domains shown) VH: EVQLVESGGGLVQPGGSLRLSCAASGFTFSSYHMSWVRQAPGKGLELVSAINSNVISTYYLDTVKGRFTISRDNAKNSLYLQMNSLRAEDTAVYYCARHEDYYGFAMDYWGQGTLVTVSS VL: DIVMTQSPDSLAVSLGERATINCKASQSVTNDVAWYQQKPGQPPKLLIYYVSNHYTGVPDRFSGSGSGTDFTLTISSLQAEDVAVYFCQQAYRSPWTFGQGTKLEIK | 0.0355 µg/mL | 182% | – | – | – | –
Hu18 (antibody, IgG4, V domains shown, humanized IgG4) VH: EVQLVESGGGLVKPGGSLRLSCAASGFTFSSYHMSWVRQAPGKGLELVSAISRDGDSTYYPDTVKGRFTISRDNAKNSLYLQMNSLRAEDTAVYYCSRHEDYFGFAMDSWGQGTLVTVSS VL: EIVMTQSPPTLSLSPGERVTLSCKASQSVSNDVAWYQQKPGQAPRLLIYYVSNRFTGIPARFSGSGSGTDFTLTISSLQPEDFAVYFCQQAYRSPWTFGQGTKLEIK | 0.0263 µg/mL | 209% | 122% | 3.39 µg/mL and 2.51 µg/mL | 0.00466 µg/mL | –
Hu38 (antibody, IgG4, V domains shown) VH: EVQLVESGGGLVQPGGSLRLSCAASGFTFSSYHMSWVRQAPGKGLELVSAINSNVISTYYLDTVKGRFTISRDNAKNSLYLQMNSLRAEDTAVYYCARHEDYYGFAMDYWGQGTLVTVSS VL: AIQMTQSPSSLSASVGDRVTITCKASQSVTNDVAWYQQKPGKAPKLLIYYVSNHYTGVPSRFSGSGSGTDFTLTISSLQPEDFATYFCQQAYRSPWTFGQGTKLEIK | 0.0337 µg/mL | 192% | – | – | – | –
Hu1 (antibody, IgG4, V domains shown, humanized IgG4; also called Hu-01) VH: EVQLVESGGGLVQPGGSLRLSCAASGFTFSSYHMSWVRQAPGKGLELVAAINSNDINTYYLDTVKGRFTISRDIAKNSLYLQMNSLRAEDTAVYYCARHEDYYGFAMDYWGQGTLVTVSS VL: DIVMTQSPDSLAVSLGERATINCKASQSVTNDVAWYQQKPGQPPKLLIYYVSNHYTGVPDRFSGSGSGTDFTLTISSLQAEDVAVYFCQQAYRSPWTFGQGTKLEIK | 0.0688 µg/mL | 92% | 154% | 4.31 µg/mL | 0.00276 µg/mL | 92.2%
Hu39 (antibody, IgG4, V domains shown) VH: EVQLVESGGGLVQPGGSLRLSCAASGFTFSSYHMSWVRQAPGKGLELVSAINSNVISTYYLDTVKGRFTISRDNAKNSLYLQMNSLRAEDTAVYYCARHEDYYGFAMDYWGQGTLVTVSS VL: EIVMTQSPPTLSLSPGERVTLSCKASQSVSNDVAWYQEKPGQAPRLLIYYVSHRFTGIPARFSGSGSGTDFTLTISSLQPEDFAVYYCHQAYRSPWTFGQGTKLEIK | 0.0217 µg/mL | 254% | – | – | – | –
Hu40 (antibody, IgG4, V domains shown) VH: EVQLVESGGGLVQPGGSLRLSCAASGFTFSSYHMSWVRQAPGKGLELVSAINSNVISTYYLDTVKGRFTISRDNAKNSLYLQMNSLRAEDTAVYYCARHEDYYGFAMDYWGQGTLVTVSS VL: DIVMTQSPDSLAVSLGERATINCKASQSVSNDVAWYQQKPGQPPKLLIYYVSHRFTGVPDRFSGSGSGTDFTLTISSLQAEDVAVYFCHQAYRSPWTFGQGTKLEIK | 0.0242 µg/mL | 227% | – | – | – | –

More lines, now with the values ahead:

EC50, CD112R/CD112 reporter [1] | Relative activity (%), EC50 COM701/EC50 antibody [1] | Relative activity (%) [2] | IC50 [3] | EC50 [4] | Relative activity (%) [5] | Binder
0.0421 µg/mL | 176% | – | – | – | – | Hu48 (antibody, IgG4, V domains shown) VH: EVQLVESGGGLVKPGGSLRLSCAASGFTFSSYHMSWVRQAPGKGLELVSAINSNVISTYYLDTVKGRFTISRDNAKNSLYLQMNSLRAEDTAVYYCARHEDYYGFAMDYWGQGTLVTVSS VL: EIVMTQSPPTLSLSPGERVTLSCKASQSVSNDVAWYQQKPGQAPRLLIYYVSNRFTGIPARFSGSGSGTDFTLTISSLQPEDFAVYFCQQAYRSPWTFGQGTKLEIK
0.0256 µg/mL | 261% | – | – | – | – | Hu45 (antibody, IgG4, V domains shown) VH: EVQLVESGGGLVKPGGSLRLSCAASGFTFSSYHMSWVRQAPGKGLELVSAINSNVISTYYLDTVKGRFTISRDNAKNSLYLQMNSLRAEDTAVYYCARHEDYYGFAMDYWGQGTLVTVSS VL: EIVMTQSPPTLSLSPGERVTLSCKASQSVSNDVAWYQEKPGQAPRLLIYYVSHRFTGIPARFSGSGSGTDFTLTISSLQPEDFAVYYCHQAYRSPWTFGQGTKLEIK
0.0267 µg/mL | 243% | – | – | – | – | Hu41 (antibody, IgG4, V domains shown) VH: EVQLVESGGGLVQPGGSLRLSCAASGFTFSSYHMSWVRQAPGKGLELVSAINSNVISTYYLDTVKGRFTISRDNAKNSLYLQMNSLRAEDTAVYYCARHEDYYGFAMDYWGQGTLVTVSS VL: DIQMTQSPSSLSASVGDRVTITCKASQSVSNDVAWYQQKPGKAPKLLIYYVSNRFTGVPSRFSGSGSGTDFTLTISSLQPEDFATYFCQQAYRSPWTFGQGTKLEIK
0.0426 µg/mL | 158% | – | – | – | – | Hu43 (antibody, IgG4, V domains shown) VH: EVQLVESGGGLVKPGGSLRLSCAASGFTFSSYHMSWVRQAPGKGLELVSAINSNVISTYYLDTVKGRFTISRDNAKNSLYLQMNSLRAEDTAVYYCARHEDYYGFAMDYWGQGTLVTVSS VL: DIVMTQSPDSLAVSLGERATINCKASQSVTNDVAWYQQKPGQPPKLLIYYVSNHYTGVPDRFSGSGSGTDFTLTISSLQAEDVAVYFCQQAYRSPWTFGQGTKLEIK
0.039 µg/mL | 190% | – | – | – | – | Hu47 (antibody, IgG4, V domains shown) VH: EVQLVESGGGLVKPGGSLRLSCAASGFTFSSYHMSWVRQAPGKGLELVSAINSNVISTYYLDTVKGRFTISRDNAKNSLYLQMNSLRAEDTAVYYCARHEDYYGFAMDYWGQGTLVTVSS VL: DIQMTQSPSSLSASVGDRVTITCKASQSVSNDVAWYQQKPGKAPKLLIYYVSNRFTGVPSRFSGSGSGTDFTLTISSLQPEDFATYFCQQAYRSPWTFGQGTKLEIK
0.0387 µg/mL | 174% | – | – | – | – | Hu44 (antibody, IgG4, V domains shown) VH: EVQLVESGGGLVKPGGSLRLSCAASGFTFSSYHMSWVRQAPGKGLELVSAINSNVISTYYLDTVKGRFTISRDNAKNSLYLQMNSLRAEDTAVYYCARHEDYYGFAMDYWGQGTLVTVSS VL: AIQMTQSPSSLSASVGDRVTITCKASQSVTNDVAWYQQKPGKAPKLLIYYVSNHYTGVPSRFSGSGSGTDFTLTISSLQPEDFATYFCQQAYRSPWTFGQGTKLEIK
0.0269 µg/mL | 249% | – | – | – | – | Hu46 (antibody, IgG4, V domains shown) VH: EVQLVESGGGLVKPGGSLRLSCAASGFTFSSYHMSWVRQAPGKGLELVSAINSNVISTYYLDTVKGRFTISRDNAKNSLYLQMNSLRAEDTAVYYCARHEDYYGFAMDYWGQGTLVTVSS VL: DIVMTQSPDSLAVSLGERATINCKASQSVSNDVAWYQQKPGQPPKLLIYYVSHRFTGVPDRFSGSGSGTDFTLTISSLQAEDVAVYFCHQAYRSPWTFGQGTKLEIK
0.0355 µg/mL | 183% | – | – | – | – | Hu42 (antibody, IgG4, V domains shown) VH: EVQLVESGGGLVQPGGSLRLSCAASGFTFSSYHMSWVRQAPGKGLELVSAINSNVISTYYLDTVKGRFTISRDNAKNSLYLQMNSLRAEDTAVYYCARHEDYYGFAMDYWGQGTLVTVSS VL: EIVMTQSPPTLSLSPGERVTLSCKASQSVSNDVAWYQQKPGQAPRLLIYYVSNRFTGIPARFSGSGSGTDFTLTISSLQPEDFAVYFCQQAYRSPWTFGQGTKLEIK

Reference: patent US20240309087A1 (SHANGHAI JUNSHI BIOSCIENCES, published 2024)
